Experimental data as given in patent CN112521494A (WUHAN INST OF BIOLOGICAL PRODUCTS CO LTD, dated 2021).

Tests used:
[1] = biological target: SARS-CoV-2刺突S1亚基蛋白(Sino公司，货号:40591-V02H) (SARS-CoV-2, UniProt P0DTC2 16-685)
[2] = biological target: T1, SARS-CoV-2刺突S1-His重组蛋白(Sino公司，货号:40591-V08H) (SARS-CoV-2, UniProt P0DTC2 16-685); assay: ELISA; S1-His coated at 1.0 μg/mL, goat anti-human IgG-HRP detection
T1 construct: domain: S1; also called S1蛋白; 刺突蛋白S1

B1: 抗SARS-CoV-2的单克隆抗体2B11 (antibody, V domains shown)
VH: EVQLVESGGGLVQPGGSLRLSCAASEITVSSNYMNWVRQAPGKGLEWVSVIYSGGTTYYADSVKGRFTISRDNSENTLYLQMNSLRAEDTAVYYCARDLMEVGGMDVWGQGTTVTVSS
VL: LPVLTQPPSASGTPGQRVTISCSGSSSNVENDNVNWFQQQVPGSTPKLVIYNDRLRPSGVPDRFSGSKSGTSAYLAISGLQSEDEADYYCVAWDASLQSYVFGTGTKVTVL
notes: also called 2B11抗体; 人源抗SARS-CoV-2抗体2B11
Question: Which IC50 [1] does the source give for B1 here?
Answer: 2.79 nM

Question: And the EC50 [2]?
Answer: 0.051 nM
